Reference: patent US20040170622A1, “Methods and compositions for modulating XBP-1 activity” (President and Fellows of Harvard College, priority 2002, published 2004)

B1: XBP-1s: vector encoding only the spliced form of murine XBP-1, a protein of 371 aa (protein)
chain: MVVVAAAPSAATAAPKVLLLSGQPASGGRALPLMVPGPRAAGSEASGTPQARKRQRLTHLSPEEKALRRKLKNRVAAQTARDRKKARMSELEQQVVDLEEENHKLQLENQLLREKTHGLVVENQELRTRLGMDTLDPDEVPEVEAKGSGVRLVAGSAESAAGAGPVVTSPEHLPMDSDTVASSDSESDILLGILDKLDPVMFFKCPSPESASLEELPEVYPEGPSSLPASLSLSVGTSSAKLEAINELIRFDHVYTKPLVLEIPSETESQTNVVVKIEEAPLSSSEEDHPEFIVSVKKEPLEDDFIPELGISNLLSSSHCLRPPSCLLDAHSDCGYEGSPSPFSDMSSPLGTDHSWEDTFANELFPQLISV
B2: dn-XBP: dominant negative XBP-1 containing the N-terminal 188 aa, lacking transactivation domain, retaining leucine zipper (protein)
chain: MVVVAAAPSAATAAPKVLLLSGQPASGGRALPLMVPGPRAAGSEASGTPQARKRQRLTHLSPEEKALRRKLKNRVAAQTARDRKKARMSELEQQVVDLEEENHKLQLENQLLREKTHGLVVENQELRTRLGMDTLDPDEVPEVEAKGSGVRLVAGSAESAAGAGPVVTSPEHLPMDSDTVASSDSESD

What was measured:
[1] = tested on: ERdj4 promoter; assay: ERdj4GL3 promoter luciferase reporter in MEF cells; type: cell-based; conditions: wt MEF, Tm 1 μg/ml 16 hours or cotransfected XBP-1s
Experimental: (A) Wild type and XBP-1^−/− MEF cells were treated with 10 μg/ml Tm for the indicated time periods. Total RNAs were isolated and subjected to Northern blot analysis. The same blot was hybridized sequentially with BiP, CHOP, ERdj4, p58^ipk, ATF6α and Gla probes. The p58^ipk probe is probe A, from the 5′ end of the gene. Ethidium bromide staining of the gel before blotting is shown at the bottom for loading control. (B) All isoforms of p58^ipk are XBP-1 dependent. Here, Northern blot analysis was performed with probe B which recognizes sequences at the 3′ end of the gene. (C) XBP-1-dependent genes are also IRE1α-dependent. Northern blot analysis of RNA prepared from IRE 1α^−/− MEFs treated with Tm for varying time periods and assessed for expression of ERdj4 and p58^ipk. (D) The ERdj4GL3 reporter was transfected with or without XBP-1s plasmid into wild type and XBP-1^−/− MEF cells. Cells were treated with Tm at 1 μg/ml for 16 hours before harvesting as indicated. Luciferase activity was normalized to the Renilla activity. (E) Induction of BiP, ERdj4 and p58^ipk in primary B cells by LPS. B220+ primary B cells were isolated from spleens of wildtype or XBP-1^−/− RAG2^−/− lymphoid chimeras. Cells were untreated or stimulated for three days with 20 μg/ml LPS. Expression of BiP, ERdj4 and p58^ipk was determined by Northern blot analysis […]

[2] = tested on: XBP-1s; assay: UPRE-luciferase reporter in NIH3T3 cells; type: cell-based
Experimental: (A) Ubiquitination of XBP-1 in HeLa cells were cotransfected with XBP-1u and His-tagged ubiquitin expression plasmids. (B) Degradation rates of XBP-1u and XBP-1s proteins were determined by pulse labeling J558 cells with ^35S Met/Cys for 1 hr and chasing for the indicated times. (C) Effect of XBP-1u on XBP-1s dependent UPRE activation in PI-treated NIH3T3 cells with 8-fold excess of XBP-1u plasmids. Transfected cells were treated with MG-132 for 16 hrs before harvesting for luciferase assays. Values represent fold induction of activity compared to the reporter alone after normalizing to Renilla. (D) Generation and expression of lysine to arginine XBP-1u mutants. Two or three lysine residues in the C-terminus of XBP-1u were replaced by arginine to generate XBP-1uKK (235, 252) and XBP-1uKKK(146, 235, 252) by site-directed mutagenesis. dn-XBP contains the N-terminal 188 aa of XBP-1u. Western blot analysis was performed with NIH3T3 extracts transfected with the indicated plasmids. E) Inhibition of XBP-1 dependent activation of the UPRE reporter in NIH 3T3 cells by XBP-1u lysine to arginine mutants.
Two or three lysine residues in the C-terminus of XBP-1u were replaced by arginines to generate XBP-1uKK (K235R, K252R) and XBP-1uKKK(K146R, K235R, K252R) by site-directed mutagenesis (Iwakoshi et al.2003 Nature Immunology 4: 321-329). dn-XBP contains the N-terminal 188 aa of XBP-1u. NTH3T3 cells were transfected by using the Lipofectamine2000 reagent as recommended by the manufacturer (Invitrogen, Carlsbad, Calif.) with indicated amount of UPRE (UPR element) reporter (Wang et al. 2000 J Biol Chem 275: 27013-27020) and various effector plasmids. Cells were treated for 16 hours before harvest in certain experiments. Cells were lysed in passive lysis buffer for dual luciferase assays according to the manufacturer's protocol (Promega, Madison, Wis.).

Molecule	ERdj4 promoter luciferase reporter induction [1]	UPRE reporter activity ([2]; in the absence of treatment)	effect on transactivation of UPRE reporter by XBP-1s ([2]; in the absence of PIs)
tunicamycin [Tm]	induced by Tm as well as by cotransfected XBP-1s	–	–
B1	induced by Tm as well as by cotransfected XBP-1s	greatly increased reporter activity	–
B2	–	–	inhibits XBP-1s -induced transactivation very efficiently
